# Experimental data published in patent US20230212319A1, “NOVEL ANTIGEN BINDING DOMAINS AND SYNTHETIC ANTIGEN RECEPTORS INCORPORATING THE SAME” (University of Southern California, priority 2020, published 2023).
# Experiments:
# MCF7 cells = type: cell-based
# L363 (BCMA+) cells = type: cell-based
# RAJI cells [1] = experiment: JNG (Jurkat NFAT-GFP) cells expressing SAR: GFP induction on co-culture with RAJI
# [2] = tested on: Daudi cells expressing luciferase; experiment: Daudi-luciferase i.p. model in NSG mice, CD16 SAR-T plus rituximab; type: in vivo; details: rituximab plus 1 × 10^7 SAR-T cells, IL-2, NSG mice
# Experimental: Use of universal SAR-T cells expressing CD16 as the antigen binding domain. Daudi cells expressing luciferase are injected intraperitoneally (i.p.; 0.3 × 10^6 cells/mouse) in NSG mice (Jackson Laboratory). Some mice receive rituximab ([…]) i.p. Human T cells (1 × 10^7) expressing CD8SP-hu-mROO5-1-vL-[hTCRb-S57C]-F-P2A-IgSP-Apa-CD16-V158-v2-G4Sx3v2-hu-mROO5-1-vH-[hTCRa-T48C] (SEQ ID NO: 4725) SAR are injected four days after Daudi inoculation. Control mice receive tissue culture medium instead of rituximab or T cells. Rituximab injection is repeated weekly for 4 weeks, with no further T lymphocyte injection. All mice receive intraperitoneal injections of 1,000-2,000 IU of IL-2 twice a week for 4 weeks.
# RAJI-CD19-KO cells = experiment: JNG assay, co-culture with RAJI-CD19-KO cells; type: cell-based; details: co-culture with Raji-CD19-KO
# Procedure, shortened: (§1)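 Jurkat NFAT-GFP (JNG) cells stably transduced with SARs by lentivirus, with drug selection where the construct carried a resistance gene, then co-cultured with target cells at E:T ~1:2 for ~4–18 h. % GFP-positive cells measured by FACS against parental JNG; +/- to 5+ correspond to ~5–50% GFP-positive.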
# RAJI cells [3] = experiment: JNG assay, co-culture with RAJI cells; type: cell-based; details: JNG cells expressing construct, co-culture with Raji
# Procedure, shortened: as §1
# L363 cells = experiment: JNG assay, co-culture with L363 cells; type: cell-based; details: co-culture with L363
# Procedure, shortened: as §1
# L363-CD38-KO = experiment: JNG NFAT-GFP assay, co-culture with L363-CD38-KO cells; type: cell-based
# RS;411 = experiment: JNG assay, co-culture with RS;411 cells; type: cell-based; details: co-culture with RS411
# Procedure, shortened: as §1
molecule,measurement,setting,value
21873 (protein) MALPVTALLLPLALLLHAARPDIQMTQSPSSLSASVGDRVTITCRASQDISSYLNWYQQKPGKAPKLLIYYTSRLHSGVPSRFSGSGSGTDFTLTISSLQPEDFATYYCQQGNTLPYTFGQGTKVEIKRLEDLKNVFPPEVAVFEPSEAEISHTQKATLVCLATGFYPDHVELSWWVNGKEVHSGVCTDPQPLKEQPALNDSRYCLSSRLRVSATFWQNPRNHFRCQVQFYGLSENDEWTQDRAKPVTQIVSAEAWGRADCGFTSESYQQGVLSATILYEILLGKATLYAVLVSALVLMAMVKRKDSRGRAKRSGSGATNFSLLKQAGDVEENPGPTSMDWIWRILFLVGAATGAHSFEVQLVESGGGLVQPGGSLRLSCAASGYTFSDYFMSWVRQAPGKGLEWVATISNGGTYTYYPDSVKGRFTISRDNSKNTLYLQMNSLRAEDTAVYYCARFDGYIFDYWGQGTLVTVSSTRIQNPDPAVYQLRDSKSSDKSVCLFTDFDSQTNVSQSKDSDVYITDKCVLDMRSMDFKSNSAVAWSNKSDFACANAFNNSIIPEDTFFPSPESSCDVKLVEKSFETDTNLNFQNLSVIGFRILLLKVAGFNLLMTLRLWSSRAKRSGSGVKQTLNFDLLKLAGDVESNPGPSRGHMTEYKPTVRLATRDDVPRAVRTLAAAFADYPATRHTVDPDRHIERVTELQELFLTRVGLDIGKVWVADDGAAVAVWTTPESVEAGAVFAEIGPRMAELSGSRLAAQQQMEGLLAPHRPKEPAWFLATVGVSPDHQGKGLGSAVVLPGVEAAERAGVPAFLETSAPRNLPFYERLGFTVTADVEVPEGPRTWCMTRKPGA,NFAT-GFP ASSAY: MCF-7,MCF7 cells,did not show GFP induction
"6821 (protein, Synthetic Polynucloetide) MALPVTALLLPLALLLHAARPQLQLQESGPGLVKPSETLSLTCTVSGDSISSGDYYWGWIRQPPGKGLEWIGHIYYSGVTYYNPSLKSRVTISVDTSRNQFSLKLSSVTAADTAVYYCTREDSSNWRSRGQGTLVTVSSLEGQPKANPTVTLFPPSSEELQANKATLVCLISDFYPGAVTVAWKADGSPVKAGVETTKPSKQSNNKYAASSYLSLTPEQWKSHRSYSCQVTHEGSTVEKTVAPTECSPIKTDVITMDPKDNCSKDANDTLLLQLTNTSAYYMYLLLLLKSVVYFAIITCCLLRRTAFCCNGEKSRAKRSGSGATNFSLLKQAGDVEENPGPTSMDWIWRILFLVGAATGAHSFEVQLLESGGGLIQPGGSLRLSCAASGFTFSSHAMTWVRQAPGKGLEWVSAISGSGDYTHYADSVKGRFTISRDNSKNTVYLQMNSLRAEDSAVYYCAKDEDGGSLLGHRGQGTLVTVSSTRASTKGPSVFPLAPSSKSTSGGTAALGCLVKDYFPEPVTVSWNSGALTSGVHTFPAVLQSSGLYSLSSVVTVPSSSLGTQTYICNVNHKPSNTKVDKRVEPKSCEVKTDSTDHVKPKETENTKQPSKSCHKPKAIVHTEKVNMMSLTVLGLRMLFAKTVAVNFLLTAKLFFLRAKRSGSGVKQTLNFDLLKLAGDVESNPGPSRGHMTEYKPTVRLATRDDVPRAVRTLAAAFADYPATRHTVDPDRHIERVTELQELFLTRVGLDIGKVWVADDGAAVAVWTTPESVEAGAVFAEIGPRMAELSGSRLAAQQQMEGLLAPHRPKEPAWFLATVGVSPDHQGKGLGSAVVLPGVEAAERAGVPAFLETSAPRNLPFYERLGFTVTADVEVPEGPRTWCMTRKPGA",GFP expression on co-culture with L363 (BCMA+),L363 (BCMA+) cells,strongly induced GFP expression
same,GFP expression on co-culture with RAJI,RAJI cells [1],strongly induced GFP expression
"4725 (protein, Synthetic Polynucloetide) MALPVTALLLPLALLLHAARPDIQMTQSPSSLSASVGDRVTITCKASDHINNWLAWYQQKPGQAPKLLIYGATTLETGVPSRFSGSGSGTDYTLTISSLQPEDFATYYCQQSWNTPWTFGQGTKLEIKRLEDLKNVFPPEVAVFEPSEAEISHTQKATLVCLATGFYPDHVELSWWVNGKEVHSGVCTDPQPLKEQPALNDSRYCLSSRLRVSATFWQNPRNHFRCQVQFYGLSENDEWTQDRAKPVTQIVSAEAWGRADCGFTSESYQQGVLSATILYEILLGKATLYAVLVSALVLMAMVKRKDSRGRAKRSGSGATNFSLLKQAGDVEENPGPTSMDWIWRILFLVGAATGAHSGPQVQLQESGGGLAQAGGSLRLSCAASGRTFSMGWFRQAPGKEREFVAAITYSGGSPYYASSVRGRFTISRDNAKNTVYLQMNSLKPEDTAVYYCAANPTYGSDWNAENWGQGTQVTVSSGSGGGGSGGGGSGGGGSFEQVQLQQPGAELVKPGASVKMSCKASGYAFSSYWINWMKQKPGQGLEWIGQIYPGDGDTNYNGKFKGRATLTADTSSSTAYMQLSSLTSEDSAVYFCARSITTVVGCAMDYWGQGTSVTVSSTRIQNPDPAVYQLRDSKSSDKSVCLFTDFDSQTNVSQSKDSDVYITDKCVLDMRSMDFKSNSAVAWSNKSDFACANAFNNSIIPEDTFFPSPESSCDVKLVEKSFETDTNLNFQNLSVIGFRILLLKVAGFNLLMTLRLWSSRAKRSGSGVKQTLNFDLLKLAGDVESNPGPSRGHMTEYKPTVRLATRDDVPRAVRTLAAAFADYPATRHTVDPDRHIERVTELQELFLTRVGLDIGKVWVADDGAAVAVWTTPESVEAGAVFAEIGPRMAELSGSRLAAQQQMEGLLAPHRPKEPAWFLATVGVSPDHQGKGLGSAVVLPGVEAAERAGVPAFLETSAPRNLPFYERLGFTVTADVEVPEGPRTWCMTRKPGA","tumor growth, Daudi-luciferase i.p.",[2],reduced tumor growth
22128 (protein) MALPVTALLLPLALLLHAARPQVQLVESGGGLVQPGGSLRLSCAASGFTFTNHAMSWVRQAPGKGLELVSSISGNGRTTYYADSVKGRFTISRDISKNTLDLQMNSLRAEDTAVYYCAKDGGETLVDSRGQGTLVTVSSLEGGGGSGGGGSIEGGGGSGGGGSKVQLLESGGGLVQPGGSLRLSCAASGFIFSSYAMSWVRQAPGKGQEWVSGVSGTGVNTYYADSVKGRFTISRDNSKNTLYLQMNSLRAEDTAVYYCASGKGWDSGSWYEDYRGQGTLVTVSSGTGGGGSGGGGSGGGGSEFDIQMTQSPSSLSASVGDRVTITCKASDHINNWLAWYQQKPGQAPKLLIYGATTLETGVPSRFSGSGSGTDYTLTISSLQPEDFATYYCQQSWNTPWTFGQGTKLEIKRLEDLKNVFPPEVAVFEPSEAEISHTQKATLVCLATGFYPDHVELSWWVNGKEVHSGVCTDPQPLKEQPALNDSRYCLSSRLRVSATFWQNPRNHFRCQVQFYGLSENDEWTQDRAKPVTQIVSAEAWGRADCGFTSESYQQGVLSATILYEILLGKATLYAVLVSALVLMAMVKRKDSRGRAKRSGSGATNFSLLKQAGDVEENPGPTSMDWIWRILFLVGAATGAHSFEQVQLQQPGAELVKPGASVKMSCKASGYAFSSYWINWMKQKPGQGLEWIGQIYPGDGDTNYNGKFKGRATLTADTSSSTAYMQLSSLTSEDSAVYFCARSITTVVGCAMDYWGQGTSVTVSSTRIQNPDPAVYQLRDSKSSDKSVCLFTDFDSQTNVSQSKDSDVYITDKCVLDMRSMDFKSNSAVAWSNKSDFACANAFNNSIIPEDTFFPSPESSCDVKLVEKSFETDTNLNFQNLSVIGFRILLLKVAGFNLLMTLRLWSSRAKRSGSGVKQTLNFDLLKLAGDVESNPGPSRAHMTEYKPTVRLATRDDVPRAVRTLAAAFADYPATRHTVDPDRHIERVTELQELFLTRVGLDIGKVWVADDGAAVAVWTTPESVEAGAVFAEIGPRMAELSGSRLAAQQQMEGLLAPHRPKEPAWFLATVGVSPDHQGKGLGSAVVLPGVEAAERAGVPAFLETSAPRNLPFYERLGFTVTADVEVPEGPRTWCMTRKPGA,NFAT-GFP ASSAY: Raji-CD19-KO,RAJI-CD19-KO cells,"2+ (refer to approximately 5%, 10%, 20%, 30%, 40% and 50% GFP positive cells)"
same,NFAT-GFP ASSAY: Raji,RAJI cells [3],"3+ (refer to approximately 5%, 10%, 20%, 30%, 40% and 50% GFP positive cells)"
same,NFAT-GFP ASSAY: L363,L363 cells,"2+ (refer to approximately 5%, 10%, 20%, 30%, 40% and 50% GFP positive cells)"
same,NFAT-GFP ASSAY: L363-CD38-KO,L363-CD38-KO,"2+ (refer to approximately 5%, 10%, 20%, 30%, 40% and 50% GFP positive cells)"
same,NFAT-GFP ASSAY: RS411,RS;411,"2+ (refer to approximately 5%, 10%, 20%, 30%, 40% and 50% GFP positive cells)"
